The values that follow come from patent US20260184814A1, “BROADLY NE[…] INFLUENZA NEURAMINIDASE” (priority 2022, published 2026).

For assay [1], the target named is N2 A/Tanzania/205/2010 (82-469) S245N S247T (Influenza A virus). Briefly: SPR (Biacore), NA on anti-Avi chip, 1:1 model; NA code NA-19 (+glyc245). (In SPR one partner is held on a chip, and binding of the other changes the refractive index at the surface.)
The target of assay [2] is N2 A/South_Australia/34/2019 (82-469) N245S (Influenza A virus). Description: SPR (Biacore), NA on anti-Avi chip, 1:1 model; NA code NA-24 (-glyc245).
Assay [3] has as its target N2 A/Tanzania/205/2010 (82-469) S245N S247T (Influenza A virus). Description: SPR, 1:1 binding; NA-19 "+glyc245".
For assay [4] the target is unchanged. Briefly: SPR; NA-19. Further details: unit not given beside the values.
For assay [5], the target named is N2 A/Hong_Kong/2671/2019 (82-469) N245S (Influenza A virus). Description: SPR; NA-25. More on the design: unit not given beside the values.
In assay [6] the target is N2 A/South_Australia/34/2019 (82-469) N245S (Influenza A virus). Description: SPR, 1:1 binding; NA-24 "-glyc245".
Assay [7] has as its target N2 A/Hong_Kong/2671/2019 (82-469) N245S (Influenza A virus). Description: SPR, 1:1 binding; NA-25 "-glyc245".
Assay [8] has as its target N2 A/South_Australia/34/2019 (82-469) N245S (Influenza A virus). Description: SPR; NA-24. Further details: unit not given beside the values.

B1: FNI9-v4.1 (antibody, V domains shown)
VH: QVHLVQSGAEVKEPGSSVTVSCKASGGSFSNQAISWVRQAPGQGLEWMGGIFPISGTPTSAQRFQGRVTFTADESTTTVYMDLSSLRSDDTAVYYCARAGSDYFNRDLGWENYYFASWGQGTLVTVSS
VL: EIVMTQSPATLSLSSGERATLSCRASRSVSSNLAWYQQKPGQAPRLLIYDASTRATGFSARFAGSGSGTEFTLTISSLQSEDSAIYYCQQYNNWPPWTFGQGTKVEIK
B1: the fold-change in affinity compared to FNI9-v1.1 in assay [1] was determined as 2.47; in assay [2], 1.53.

B2: FNI9-v8.1 (antibody, V domains shown)
VH: QVHLVQSGAEVKEPGSSVTVSCKASGGTFNNQAISWVRQAPGQGLEWMGGIFPISGTPTSAQRFQGRVTFTADESTTTVYMDLSSLRSDDTAVYYCARAGSDYFNRDLGWENYYFASWGQGTLVTVSS
VL: EIVMTQSPATLSLSSGERATLSCRASRSVSSNLAWYQQKPGQAPRLLIYDASTRATGFSARFAGSGSGTEFTLTISSLQSEDSAIYYCQQYNNWPPWTFGQGTKVEIK
Consider B2, for which the fold-change in affinity compared to FNI9-v1.1 was 1.12 in assay [1] and 0.42 in assay [2].

B3: Fab FNI9-v4.1 (Fab, V domains shown)
VH: QVHLVQSGAEVKEPGSSVTVSCKASGGSFSNQAISWVRQAPGQGLEWMGGIFPISGTPTSAQRFQGRVTFTADESTTTVYMDLSSLRSDDTAVYYCARAGSDYFNRDLGWENYYFASWGQGTLVTVSS
VL: EIVMTQSPATLSLSSGERATLSCRASRSVSSNLAWYQQKPGQAPRLLIYDASTRATGFSARFAGSGSGTEFTLTISSLQSEDSAIYYCQQYNNWPPWTFGQGTKVEIK
As a reminder, the Kd is a measure of binding affinity in units of concentration. Consider B3, for which the dissociation constant (Kd) was 8.31 nM in assay [3], 22.8 nM in assay [6] and 1.07 nM in assay [7]. The results for the KD compared to v1.1 in assay [4], in assay [5] and in assay [8] were 1.23, 1.53 and 1.66, respectively.

B4: Fab FNI9-v8.1 (Fab, V domains shown)
VH: QVHLVQSGAEVKEPGSSVTVSCKASGGTFNNQAISWVRQAPGQGLEWMGGIFPISGTPTSAQRFQGRVTFTADESTTTVYMDLSSLRSDDTAVYYCARAGSDYFNRDLGWENYYFASWGQGTLVTVSS
VL: EIVMTQSPATLSLSSGERATLSCRASRSVSSNLAWYQQKPGQAPRLLIYDASTRATGFSARFAGSGSGTEFTLTISSLQSEDSAIYYCQQYNNWPPWTFGQGTKVEIK
Turning to B4, the equilibrium dissociation constant (Kd) was 3.83 nM in assay [3], 11.2 nM in assay [6] and 0.49 nM in assay [7]. For the same molecule, the figures for the KD compared to v1.1 in assay [4], in assay [5] and in assay [8] were 0.57, 0.7 and 0.82, respectively.

B5: FNI9-v9.1 (antibody, V domains shown)
VH: QVHLVQSGAEVKEPGSSVTVSCKASGGSFNNQAISWVRQAPGQGLEWMGGIFPISGTATSAQRFQGRVTITADESTTTVYMDLSSLRSDDTAVYYCARAGSDYFNRDLGWENYYFASWGQGTLVTVSS
VL: EIVMTQSPATLSLSSGERATLSCRASRSVSSNLAWYQQKPGQAPRLLIYDASTRATGFSARFAGSGSGTEFTLTISSLQSEDSAIYYCQQYNNWPPWTFGQGTKVEIK
With B5, the fold-change in affinity compared to FNI9-v1.1 in assay [1] was found to be 4.59; in assay [2] it was 0.99.
